The values that follow come from patent EP2747783B1.

Test [1] concerns the target human c-Met, cell membrane expressed (A549, BxPC-3, myeloma cells) (human) (UniProt P08581). The experiment in a line: cell-based or functional assay.
For test [2] the target is unchanged. The test can be described thus: flow cytometry; competition with 1 nM biotinylated hHGF on A549 cells. For orientation: Flow cytometry measures light scatter and fluorescence of single cells or particles in a stream.
The target in test [3] is cynomolgus c-Met expressed on BAF3 cells (cynomolgus monkey). The test can be described thus: flow cytometry; competition with 0.5 nM biotinylated HGF on BAF3 cells with cynomolgus c-Met.
cynomolgus c-Met expressed on BAF3 cells (cynomolgus monkey), sequence (A0M8R7 25-1381 S170N/I621T limits assumed, form in doubt): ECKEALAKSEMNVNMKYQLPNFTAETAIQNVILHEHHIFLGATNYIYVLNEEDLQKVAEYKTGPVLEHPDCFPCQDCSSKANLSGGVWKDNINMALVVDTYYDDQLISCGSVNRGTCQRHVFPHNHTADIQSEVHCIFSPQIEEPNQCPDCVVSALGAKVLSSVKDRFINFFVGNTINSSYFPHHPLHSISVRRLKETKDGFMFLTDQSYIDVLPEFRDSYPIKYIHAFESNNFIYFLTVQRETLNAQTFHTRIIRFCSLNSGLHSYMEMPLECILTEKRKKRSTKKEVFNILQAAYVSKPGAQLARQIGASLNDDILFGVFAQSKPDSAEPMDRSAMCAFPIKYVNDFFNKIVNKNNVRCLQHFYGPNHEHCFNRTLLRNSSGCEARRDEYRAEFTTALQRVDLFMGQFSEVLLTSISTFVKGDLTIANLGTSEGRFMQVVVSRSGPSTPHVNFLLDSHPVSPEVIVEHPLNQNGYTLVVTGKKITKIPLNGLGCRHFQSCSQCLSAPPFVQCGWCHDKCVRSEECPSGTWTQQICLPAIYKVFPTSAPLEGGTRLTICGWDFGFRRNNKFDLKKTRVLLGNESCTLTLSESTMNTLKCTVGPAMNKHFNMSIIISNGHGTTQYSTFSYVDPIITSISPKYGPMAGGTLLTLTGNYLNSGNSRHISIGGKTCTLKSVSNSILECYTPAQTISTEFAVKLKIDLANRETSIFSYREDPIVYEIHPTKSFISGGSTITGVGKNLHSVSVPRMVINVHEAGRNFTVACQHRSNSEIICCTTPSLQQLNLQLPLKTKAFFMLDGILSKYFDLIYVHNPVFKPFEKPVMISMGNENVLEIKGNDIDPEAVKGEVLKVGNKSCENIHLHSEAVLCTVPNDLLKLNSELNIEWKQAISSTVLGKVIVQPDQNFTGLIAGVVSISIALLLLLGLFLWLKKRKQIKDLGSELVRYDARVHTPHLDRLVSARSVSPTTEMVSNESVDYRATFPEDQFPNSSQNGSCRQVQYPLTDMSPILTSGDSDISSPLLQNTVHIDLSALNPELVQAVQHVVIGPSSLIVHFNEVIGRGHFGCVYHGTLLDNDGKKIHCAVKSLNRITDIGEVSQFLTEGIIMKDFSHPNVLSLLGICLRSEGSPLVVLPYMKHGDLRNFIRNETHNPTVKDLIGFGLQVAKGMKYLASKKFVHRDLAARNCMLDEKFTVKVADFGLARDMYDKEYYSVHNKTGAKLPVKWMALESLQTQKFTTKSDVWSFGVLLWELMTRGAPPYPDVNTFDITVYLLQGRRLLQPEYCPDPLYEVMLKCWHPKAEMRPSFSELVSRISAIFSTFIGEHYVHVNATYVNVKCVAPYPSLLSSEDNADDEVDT

human c-Met, cell membrane expressed (A549, BxPC-3, myeloma cells) (human), sequence (P08581 25-1390 limits assumed, form in doubt): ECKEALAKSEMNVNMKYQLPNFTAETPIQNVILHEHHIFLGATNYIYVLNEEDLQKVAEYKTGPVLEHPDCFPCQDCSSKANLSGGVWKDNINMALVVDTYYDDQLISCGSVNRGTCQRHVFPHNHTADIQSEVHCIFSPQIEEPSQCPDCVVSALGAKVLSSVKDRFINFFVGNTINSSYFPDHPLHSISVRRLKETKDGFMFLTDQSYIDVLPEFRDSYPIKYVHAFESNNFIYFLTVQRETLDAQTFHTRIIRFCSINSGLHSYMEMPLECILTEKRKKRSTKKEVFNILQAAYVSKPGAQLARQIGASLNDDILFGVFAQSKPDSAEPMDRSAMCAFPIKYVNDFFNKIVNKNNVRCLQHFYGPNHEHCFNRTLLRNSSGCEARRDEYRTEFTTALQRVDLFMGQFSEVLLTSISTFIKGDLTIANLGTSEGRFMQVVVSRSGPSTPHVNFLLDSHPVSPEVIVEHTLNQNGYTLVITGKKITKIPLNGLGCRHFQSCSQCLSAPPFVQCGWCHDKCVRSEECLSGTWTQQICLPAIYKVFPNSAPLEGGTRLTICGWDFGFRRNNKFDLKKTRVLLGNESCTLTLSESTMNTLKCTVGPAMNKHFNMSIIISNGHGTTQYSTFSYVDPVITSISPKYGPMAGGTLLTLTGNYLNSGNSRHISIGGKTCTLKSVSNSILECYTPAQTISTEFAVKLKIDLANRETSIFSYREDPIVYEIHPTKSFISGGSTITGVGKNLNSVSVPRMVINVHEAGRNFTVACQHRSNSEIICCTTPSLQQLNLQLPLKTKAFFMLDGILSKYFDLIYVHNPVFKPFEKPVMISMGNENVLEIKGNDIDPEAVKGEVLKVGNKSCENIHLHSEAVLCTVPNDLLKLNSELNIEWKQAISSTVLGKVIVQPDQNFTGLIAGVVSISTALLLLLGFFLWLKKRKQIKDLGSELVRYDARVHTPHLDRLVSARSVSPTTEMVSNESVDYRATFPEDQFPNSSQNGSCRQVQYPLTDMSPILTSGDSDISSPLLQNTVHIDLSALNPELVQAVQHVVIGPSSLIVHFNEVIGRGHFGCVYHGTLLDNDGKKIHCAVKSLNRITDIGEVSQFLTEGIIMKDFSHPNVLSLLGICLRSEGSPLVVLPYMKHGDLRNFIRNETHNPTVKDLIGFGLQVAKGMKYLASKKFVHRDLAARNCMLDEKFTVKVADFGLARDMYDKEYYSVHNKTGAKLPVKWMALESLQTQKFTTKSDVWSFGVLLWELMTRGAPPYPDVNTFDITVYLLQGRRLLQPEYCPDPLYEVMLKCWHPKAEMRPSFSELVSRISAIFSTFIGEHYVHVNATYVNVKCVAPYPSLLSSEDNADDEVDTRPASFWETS

As for “anti-c-Met antibody fragment 5D5 Fab from mAb”, in test [1], the % inhibition, HGF-dependent A549 cell migration is 112%; the % inhibition, HGF-dependent c-Met phosphorylation, Experiment 1 came to 96.4%; the % inhibition, HGF-dependent c-Met phosphorylation, Experiment 2 turned out to be 95.9%; the % inhibition, HGF-dependent proliferation of BxPC3 cells was determined as 94.8%. In addition, in test [1], the IC50, HGF-dependent c-Met phosphorylation, experiment 1 amounted to 10.4 nM; the IC50, HGF-dependent c-Met phosphorylation, experiment 2 was 9.09 nM; the IC50 ratio to 5D5 Fab, HGF-dependent A549 cell migration worked out at 1; the IC50 ratio to 5D5 Fab, HGF-dependent c-Met phosphorylation, Experiment 1 was 1. For the same substance, in test [1], the IC50 ratio to 5D5 Fab, HGF-dependent c-Met phosphorylation, Experiment 2 was 1 and the IC50 ratio to 5D5 Fab, HGF-dependent proliferation of BxPC3 cells turned out to be 1.

The term % inhibition denotes the drop in the measured response relative to a control, in per cent. Read a high % inhibition as strong suppression. anti-c-Met antibody 5D5: in test [1], the c-Met phosphorylation without HGF (agonistic activity), A549 cells is 37 nM. For the same substance, the % inhibition in test [2] and in test [3] was 100% in each case.
